Results taken from US11752210B2, “Sensitizing composition using electromagnetic waves for thermal therapy of cancers, and cancer therapy using same” (JINIS CO., LTD., priority 2013, dated 2023).

Legend:
[1] = system: cancer cell line NCI-H460; assay: In vitro temperature elevation in cancer cells cultured with transferrin, after electromagnetic waves (Test Example 4); assay type: cell-based; conditions: for increase in temperature before and after electromagnetic waves: cancer cell line, cultured 4 hr, washed, 100 W for 3 min
Description: (§1) The temperature elevation by the metal ion-noncovalently bound apotransferrin was evaluated through in vitro cell testing. A cancer cell line […] Sciences) in which the transferrin receptor was over-expressed was cultured, and 0.1 ml of a cell suspension at a concentration of 1×10^3 cells/ml was aliquoted into a 96-well plate and cultured in a CO2 incubator at 37° C. for 12 hr. As a control, normal human cells, i.e. stromal cells, were cultured, and 0.1 ml thereof was aliquoted at a concentration of 3×10^3 cells/ml into a 96-well plate and cultured in a CO2 incubator at 37° C. for 12 hr. […] After completion of the culturing of transferrin and cells, each plate was washed with a DMEM medium, thus removing transferrin that was not introduced into the cells. Next, each plate was exposed to an energy dose of 100 W for 3 min using a radio-frequency hyperthermia system (EHY-2000, Oncothermia), and changes in the temperature were measured using a thermal imaging camera ([…], Korea Rental, Korea).

[2] = system: NCI-H460-luc2 tumor xenograft; assay: Thermal cancer therapy with repeated sensitizer dosing, weekly bioluminescence imaging of tumor size over four weeks (Example 1, FIG. 13); assay type: in vivo, BALB/c athymic nude mice; conditions: i.v. three times per week, 100 W 30 min or more
Description: After 4 hr, thermal treatment for 30 min or more using a radio-frequency hyperthermia system (EHY-2000, Oncothermia) with an energy dose of 100 W was performed for a total of four weeks, and the size of tumorous tissue was monitored every week. […] In the group to which transferrin was administered, 0.1 ml of the transferrin aqueous solution having a concentration of 5 mg/ml was intravenously injected. As such, the non-treated group and the saline-treated group were used as controls.
In order to analyze the size of tumorous tissue, bioluminescence imaging was regularly performed at an interval of one week, and analysis was performed using Igor Pro imaging analysis software.

[3] = In vivo accumulation of iron ion in normal and tumorous tissue after transferrin, ICP-MS (Test Example 6); parameters: species or system BALB/c athymic nude mice; concentration of iron ion (ICP-MS): unit not given here; conditions: 16 mg/kg i.v., after 24 hr
Description: In order to evaluate the accumulation capacity of “metal ion-noncovalently bound apotransferrin” (transferrin) in tumorous tissue, the iron-bound transferrin aqueous solution was administered to the mice, after which the concentrations of the metal ions were measured in normal tissue and tumorous tissue. The iron ion-bound apotransferrin (transferrin) aqueous solution was prepared at 4 mg/ml, and 0.1 ml thereof was intravenously injected in a dose of 16 mg/kg. After 24 hr, each tissue was sampled in the same manner as in Test Example 5 and the concentration of the metal ion was measured through ICP-MS (Varian 800-MS, Palo Alto, US).

[4] = system: NCI-H460-luc2 tumor xenograft; assay: Thermal cancer therapy with sensitizer, bioluminescence imaging of tumor size in the last week (Example 1, FIG. 12); assay type: in vivo, BALB/c athymic nude mice; conditions: i.v. 1 mg/kg metal ion-bound material or 20 mg/kg transferrin, 100 W 10 min, three times per week, four weeks
Description: Next, the potential to treat cancer was evaluated using the metal ion-bound material as the sensitizer upon thermal therapy. A lung cancer cell line NCI-H460-luc2 ([…] Sciences) was cultured, and 5×10^6 cells were subcutaneously injected into 6 to 8-week-old female BALB/c athymic nude mice (Damul Science), and the mice were bred for about 10 days so as to grow tumorous tissue to a size of 100 mm^3 or more, yielding the tumor xenograft animal models for the evaluation of cancer treatment effects. […] After 4 hr, thermal treatment was performed three times per week for a total of four weeks using a radio-frequency hyperthermia system (EHY-2000, Oncothermia) with an energy dose of 100 W for 10 min. As such, a non-treated group and a saline-treated group were set as controls. In order to analyze the size of tumorous tissue in the last week, bioluminescence imaging was performed. For bioluminescence of a luciferase-expressing cancer cell line NCI-H460-luc2, D-luciferin (Xenogen, USA) was intraperitoneally injected at a concentration of 150 mg luciferin/kg/d into the mice, the mice were anesthetized through inhalation using a mixture of isoflurane gas and oxygen, and luminous cancer cells were subjected to overlap photographing using a Xenogen imager (IVIS 200), and analyzed using Igor Pro imaging analysis software.

[5] = system: NCI-H460-luc2 tumor xenograft; assay: Temperature of normal and tumorous tissue of tumor xenograft mice on application of electromagnetic waves after sensitizer (Example 1, FIGS. 9 to 11); assay type: in vivo, BALB/c athymic nude mice; conditions: i.v. iron sucrose 1 mg/kg or transferrin 20 mg/kg, 4 hr after administration, 100 W for 3 min
Description: To this end, a lung cancer cell line NCI-H460-luc2 (Califer Life Sciences) was cultured, and 5×10^6 cells were subcutaneously injected into 6 to 8-week-old female BALB/c athymic nude mice (Damul Science), and the mice were bred for about 10 days so as to grow tumorous tissue to a size of 100 mm^3 or more, yielding the tumor xenograft animal models for the evaluation of cancer treatment effects.
As the sensitizing composition for thermal therapy, iron sucrose was prepared in the same manner as in Test Example 1, and 0.1 ml of the iron sucrose aqueous solution having a concentration of 0.2 mg/ml was intravenously injected into the established tumor xenograft mice so as to reach a dose of 1 mg/kg.
As the sensitizing composition for thermal therapy, “iron ion-bound apotransferrin” (transferrin) was prepared in the same manner as in Test Example 3, and 0.1 ml of the transferrin aqueous solution having a concentration of 5 mg/ml was intravenously injected into the established tumor xenograft mice so as to reach a dose of 20 mg/kg.
As the control, saline was administered. 4 hr after administration, electromagnetic waves were applied in an energy dose of 100 W for 3 min using a radio-frequency hyperthermia system (EHY-2000, Oncothermia), and the temperatures of normal tissue and tumorous tissue were measured using a thermal imaging device (E60, Korea Rental, Korea).

[6] = system: normal human cells, i.e. stromal cells; assay: In vitro temperature elevation in normal cells cultured with transferrin, after electromagnetic waves (Test Example 4); assay type: cell-based; conditions: normal cell line; all concentrations (0 to 5 mg/ml); cultured 4 hr, washed; 100 W for 3 min
Description: as §1

Q: Which “selectivity of temperature elevation depending on concentration, cancer vs normal cell line” value ([1]; FIGS. 5 to 8) does the source give for “transferrin: iron ion-bound apotransferrin prepared by reacting ferric hydroxide solution with apotransferrin at 37° C. for 30 min” here?
A: more selective in the cancer cell line than in the normal cell line

Q: What about the “increase in temperature before and after electromagnetic waves” value ([1]; 1 mg/ml) of the same substance?
A: 11.9 °C

Q: And the “increase in temperature before and after electromagnetic waves” value ([1]; 5 mg/ml)?
A: 12.6 °C

Q: What about the “growth of cancer upon thermal treatment using electromagnetic waves (bioluminescence imaging)” value ([2]; 0.1 ml of 0.2 mg/ml (iron dextran, iron sucrose) or 5 mg/ml (transferrin), four weeks) of the same substance?
A: remarkably inhibited

Q: And the “size of cancer after four weeks (bioluminescence imaging)” value ([2]; 0.1 ml of 5 mg/ml, after four weeks)?
A: disappeared completely

Q: And the “Fold increase of iron ion vs saline” value ([3]; Brain)?
A: 1.26

Q: And the “concentration of iron ion (ICP-MS)” value ([3]; Brain)?
A: 28.4 ± 3.5

Q: What about the “Fold increase of iron ion vs saline” value ([3]; Heart) of the same substance?
A: 2.18

Q: What about the “concentration of iron ion (ICP-MS)” value ([3]; Heart) of the same substance?
A: 70.1 ± 12.3

Q: What about the “Fold increase of iron ion vs saline” value ([3]; Kidney) of the same substance?
A: 0.72

Q: And the “concentration of iron ion (ICP-MS)” value ([3]; Kidney)?
A: 41.2 ± 1.7

Q: What about the “Fold increase of iron ion vs saline” value ([3]; Liver) of the same substance?
A: 1.27

Q: What about the “concentration of iron ion (ICP-MS)” value ([3]; Liver) of the same substance?
A: 94.7 ± 8.1

Q: And the “Fold increase of iron ion vs saline” value ([3]; Lung)?
A: 1.55

Q: And the “concentration of iron ion (ICP-MS)” value ([3]; Lung)?
A: 43.9 ± 17.9

Q: What about the “Fold increase of iron ion vs saline” value ([3]; Muscle) of the same substance?
A: 0.87

Q: What about the “concentration of iron ion (ICP-MS)” value ([3]; Muscle) of the same substance?
A: 25.7 ± 5.2

Q: And the “Fold increase of iron ion vs saline” value ([3]; Stomach)?
A: 1.67

Q: And the “concentration of iron ion (ICP-MS)” value ([3]; Stomach)?
A: 46.4 ± 14.9

Q: What about the “concentration of iron ion (ICP-MS)” value ([3]; Tumor) of the same substance?
A: 43.9 ± 9.7

Q: And the “Fold increase of iron ion vs saline” value ([3]; Tumor, 16 mg/kg)?
A: ≥ 3.2

Q: And the “Fold increase of iron ion vs saline” value ([3]; Tumor, listed as Transferrin, 16 mg/kg)?
A: 3.25

Q: What about the “cancer treatment effects through thermal therapy (size of tumorous tissue, bioluminescence imaging)” value [4] of the same substance?
A: excellent

Q: What about the “changes in the temperature before and after the application of electromagnetic waves” value ([5]; normal tissue) of the same substance?
A: 1 °C

Q: What about the “changes in the temperature before and after the application of electromagnetic waves” value ([5]; tumorous tissue) of the same substance?
A: 2 °C

Q: And the “change in temperature before and after electromagnetic waves” value [6]?
A: about 7 °C
